Consider 1 molecule from PMC10716038, “Talin and kindlin use integrin tail allostery and direct binding to activate integrins” (Nature Structural & Molecular Biology, 2023).

Conditions in all cases: both partners purified
Experiment [1] addresses T1, talin-2 head domain (THD2) (UniProt Q71LX4 1-408).
T1 construct: talin-2 (TLN2) head domain (THD), residues 1-408; source: E. coli (DE3) Rosetta 2, purified (IMAC, SEC); not shown: His10-SUMO, N-terminal, cleaved
Description: MST; unlabelled protein titrated to 50-200 nM ATTO 488-labelled β-CT peptide, no third protein; 20 mM Tris pH 7.5, 200 mM NaCl, 1 mM TCEP, 0.05% Tween-20; Kd of individual titrations (in S0002 mean and sd, n = 2).

In the next experiment the target is T2, THD1 KKAA (UniProt P26039 1-405, KKAA (KK402/403)).
T2 construct: the sheet prints only 'KKAA'; source: E. coli (DE3) Rosetta 2, purified (IMAC, SEC); not shown: His10-SUMO, N-terminal, cleaved
T2 sequence (P26039 other isoform, or with tags, fused parts or gaps KKAA (KK402/403) | KKAA (KK402/403)): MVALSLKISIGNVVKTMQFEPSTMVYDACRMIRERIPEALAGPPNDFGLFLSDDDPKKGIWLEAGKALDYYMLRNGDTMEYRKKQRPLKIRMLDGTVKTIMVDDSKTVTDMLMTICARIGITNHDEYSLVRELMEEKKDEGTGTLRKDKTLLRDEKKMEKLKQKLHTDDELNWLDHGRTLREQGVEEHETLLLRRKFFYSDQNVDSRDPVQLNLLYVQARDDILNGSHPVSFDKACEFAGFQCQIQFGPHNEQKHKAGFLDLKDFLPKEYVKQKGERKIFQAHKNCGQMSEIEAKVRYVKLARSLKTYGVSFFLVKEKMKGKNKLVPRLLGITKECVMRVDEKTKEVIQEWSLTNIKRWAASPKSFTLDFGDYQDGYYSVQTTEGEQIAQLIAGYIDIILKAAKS
The experiment is described as follows: MST; apparent; THD1 or THD1 mutants titrated to 488–β3-CT in the presence of 30-40 µM KIND2; MST buffer.

The target of another experiment is T3, THD1 K402A (UniProt P26039 1-405, K402A).
T3 construct: talin-1 (TLN1) head domain, residues 1-405, K402A; source: E. coli (DE3) Rosetta 2, purified (IMAC, SEC); not shown: His10-SUMO, N-terminal, cleaved
T3 sequence (P26039 1-405 K402A): as the sequence (P26039 other isoform, or with tags, fused parts or gaps KKAA (KK402/403) | KKAA (KK402/403)) above, with A403K counted along it
Described as above.

The next experiment addresses T4, THD1 Y395A (UniProt P26039 1-405, Y395A).
T4 construct: talin-1 (TLN1) head domain, residues 1-405, Y395A; source: E. coli (DE3) Rosetta 2, purified (IMAC, SEC); not shown: His10-SUMO, N-terminal, cleaved
The description is as above.

Another experiment has as its target T5, THD1 Δ401-405 (UniProt P26039 1-405, Δ401-405).
T5 construct: source: E. coli (DE3) Rosetta 2, purified (IMAC, SEC); not shown: His10-SUMO, N-terminal, cleaved
The description is as above.

A further experiment has as its target T6, THD1 I399A (UniProt P26039 1-405, I399A).
T6 construct: talin-1 (TLN1) head domain, residues 1-405, I399A; source: E. coli (DE3) Rosetta 2, purified (IMAC, SEC); not shown: His10-SUMO, N-terminal, cleaved
The description is as above.

The target of the next experiment is T7, THD1 L400A (UniProt P26039 1-405, L400A).
T7 construct: talin-1 (TLN1) head domain, residues 1-405, L400A; source: E. coli (DE3) Rosetta 2, purified (IMAC, SEC); not shown: His10-SUMO, N-terminal, cleaved
T7 sequence (P26039 1-405 L400A): as the sequence (P26039 other isoform, or with tags, fused parts or gaps KKAA (KK402/403) | KKAA (KK402/403)) above, with L400A, A402K, A403K counted along it
The description is as above.

Another experiment addresses T8, THD1 K401A (UniProt P26039 1-405, K401A).
T8 construct: talin-1 (TLN1) head domain, residues 1-405, K401A; source: E. coli (DE3) Rosetta 2, purified (IMAC, SEC); not shown: His10-SUMO, N-terminal, cleaved
Described as above.

For the next experiment, the target named is T9, THD1 I396A (UniProt P26039 1-405, I396A).
T9 construct: talin-1 (TLN1) head domain, residues 1-405, I396A; source: E. coli (DE3) Rosetta 2, purified (IMAC, SEC); not shown: His10-SUMO, N-terminal, cleaved
T9 sequence (P26039 1-405 I396A): as the sequence (P26039 other isoform, or with tags, fused parts or gaps KKAA (KK402/403) | KKAA (KK402/403)) above, with I396A, A402K, A403K counted along it
Described as above.

Another experiment has as its target T10, kindlin-2 (KIND2) (UniProt Q8CIB5 1-680).
T10 construct: kindlin-2 (KIND2), recombinant; with the F1 loop and the PH domain (unlike ΔKIND2); source: E. coli Rosetta, purified (IMAC, SEC); not shown: His10-SUMO, N-terminal, cleaved
T10 sequence (looked up): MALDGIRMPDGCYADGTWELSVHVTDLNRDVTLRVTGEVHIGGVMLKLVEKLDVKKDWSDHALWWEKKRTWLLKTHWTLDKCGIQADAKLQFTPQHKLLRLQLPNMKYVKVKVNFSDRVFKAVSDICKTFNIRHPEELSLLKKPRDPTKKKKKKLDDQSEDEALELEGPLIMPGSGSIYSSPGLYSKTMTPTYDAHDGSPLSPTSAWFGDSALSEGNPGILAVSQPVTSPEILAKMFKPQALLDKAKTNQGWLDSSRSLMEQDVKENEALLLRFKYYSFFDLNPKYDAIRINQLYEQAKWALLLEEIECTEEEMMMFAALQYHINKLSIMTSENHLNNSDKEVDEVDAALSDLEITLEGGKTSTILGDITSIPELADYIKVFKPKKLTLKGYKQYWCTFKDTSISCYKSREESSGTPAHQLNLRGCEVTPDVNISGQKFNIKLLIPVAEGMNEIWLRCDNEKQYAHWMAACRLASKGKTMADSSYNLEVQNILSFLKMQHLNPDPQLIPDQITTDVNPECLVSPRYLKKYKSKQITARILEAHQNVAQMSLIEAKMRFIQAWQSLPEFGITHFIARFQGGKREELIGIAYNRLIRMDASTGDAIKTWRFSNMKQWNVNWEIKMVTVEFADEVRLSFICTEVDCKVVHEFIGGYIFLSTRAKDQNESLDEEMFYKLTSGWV
Description: MST; apparent; KIND2 titrated to 488–β3-CT in the presence of 250–450 µM THD1; MST buffer.

“And” between values parts separate entries of the source, which are not always exact repeats. Equal entries are not always repeated. No end group written: not given here.

T1 sequence (Q71LX4 1-408): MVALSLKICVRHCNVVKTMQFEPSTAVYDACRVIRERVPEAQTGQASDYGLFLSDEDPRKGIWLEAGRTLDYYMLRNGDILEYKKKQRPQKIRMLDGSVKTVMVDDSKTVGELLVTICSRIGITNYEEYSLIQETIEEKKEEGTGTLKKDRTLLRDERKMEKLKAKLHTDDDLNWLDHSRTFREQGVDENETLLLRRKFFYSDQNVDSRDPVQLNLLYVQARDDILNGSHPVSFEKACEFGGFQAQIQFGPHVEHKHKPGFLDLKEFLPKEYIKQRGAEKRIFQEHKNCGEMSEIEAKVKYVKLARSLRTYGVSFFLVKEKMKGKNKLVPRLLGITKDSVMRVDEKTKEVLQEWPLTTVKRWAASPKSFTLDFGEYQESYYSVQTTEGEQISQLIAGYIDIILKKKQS
T4 sequence (P26039 1-405 Y395A): as the sequence (P26039 other isoform, or with tags, fused parts or gaps KKAA (KK402/403) | KKAA (KK402/403)) above, with Y395A, A402K, A403K counted along it
T8 sequence (P26039 1-405 K401A): as the sequence (P26039 other isoform, or with tags, fused parts or gaps KKAA (KK402/403) | KKAA (KK402/403)) above, with K401A, A402K, A403K counted along it
T5 sequence (P26039 1-400, stated change not applied): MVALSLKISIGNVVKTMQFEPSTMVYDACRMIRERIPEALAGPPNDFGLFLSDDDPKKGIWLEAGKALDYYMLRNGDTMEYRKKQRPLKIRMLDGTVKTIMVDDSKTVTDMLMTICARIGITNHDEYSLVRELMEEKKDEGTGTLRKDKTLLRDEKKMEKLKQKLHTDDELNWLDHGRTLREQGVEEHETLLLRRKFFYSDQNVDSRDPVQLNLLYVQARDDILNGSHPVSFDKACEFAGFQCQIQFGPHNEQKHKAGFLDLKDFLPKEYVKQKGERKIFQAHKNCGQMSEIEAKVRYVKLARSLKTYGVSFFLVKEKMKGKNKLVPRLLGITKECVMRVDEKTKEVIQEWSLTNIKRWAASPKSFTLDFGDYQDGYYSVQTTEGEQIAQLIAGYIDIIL
T6 sequence (P26039 1-405 I399A): as the sequence (P26039 other isoform, or with tags, fused parts or gaps KKAA (KK402/403) | KKAA (KK402/403)) above, with I399A, A402K, A403K counted along it

B1: ATTO 488-labeled integrin β3 cytoplasmic tail (488–β3-CT) (peptide, UniProt O54890 741-787, looked up)
peptide: {ATTO 488}-KLLITIHDRKEFAKFEEERARAKWDTANNPLYKEATSTFTNITYRGT
notes: integrin β3 cytoplasmic tail (β3-CT); source: synthetic peptide (MPIB Core Facility)
On to B1, for which the Kd was 31.7 µM and 32.1 µM and 49.1 µM in experiment [1]; 88.3 µM with THD1 KKAA; 117 µM with THD1 K402A; 42 µM with THD1 Y395A; 560 µM with THD1 Δ401-405; 91 µM with THD1 I399A. Also, the Kd with THD1 L400A was 180 µM; with THD1 K401A it was 148 µM; with THD1 I396A, 551 µM; with kindlin-2 (KIND2) it was 30.7 µM and 85.6 µM and 31.9 µM and 66 µM.
